Measured values reported in US20250076311A1 (Chugai, published 2025).
Changes are numbered by the printed parent chain. Names may count otherwise. One block for each binder: values may come before it.

What was measured:
[1] = target: T1, cynomolgus monkey FcγRIIa2 extracellular domain with C-terminal His-tag (cynomolgus monkey); experiment: SPR, KD(SG1)/KD(variant)
T1 construct: also called cyno FcgRIIa2; cynoFcγRIIa2
T1 chain: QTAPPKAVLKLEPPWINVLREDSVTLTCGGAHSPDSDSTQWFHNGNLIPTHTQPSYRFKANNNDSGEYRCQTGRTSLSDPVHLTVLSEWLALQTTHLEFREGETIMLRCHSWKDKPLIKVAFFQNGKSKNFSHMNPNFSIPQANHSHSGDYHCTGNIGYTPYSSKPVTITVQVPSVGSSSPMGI
Protocol: (§1) The kinetic analysis of interactions between these antibodies and FcγR was carried out using BIACORE® T200 or BIACORE® 4000 (GE Healthcare). HBS-EP+ (GE Healthcare) was used as the running buffer, and the measurement temperature was set to 25° C. […] After the measurement, the antibody captured on the chip was washed off by allowing reaction with 10 mM glycine-HCl, pH1.5 and 25 mM NaOH so that the chip was regenerated and used repeatedly. The sensorgrams obtained as measurement results were analyzed by the 1:1 Langmuir binding model using the BIACORE® Evaluation Software to calculate the binding rate constant ka (L/mol/s) and dissociation rate constant kd (1/s), and the dissociation constant KD (mol/L) was calculated from these values. […] Regarding such interactions, KD values were calculated using the following 1:1 binding model described in BIACORE® T100 Software Handbook BR1006-48 Edition AE.

[2] = target: T2, human FcγRIIIaV extracellular domain with C-terminal His-tag (human, UniProt P08637 17-208); experiment: SPR, KD(SG1)/KD(variant)
T2 construct: also called human FcgRIIIaV
Protocol: as §1
T2 sequence (P08637 17-208 F176V): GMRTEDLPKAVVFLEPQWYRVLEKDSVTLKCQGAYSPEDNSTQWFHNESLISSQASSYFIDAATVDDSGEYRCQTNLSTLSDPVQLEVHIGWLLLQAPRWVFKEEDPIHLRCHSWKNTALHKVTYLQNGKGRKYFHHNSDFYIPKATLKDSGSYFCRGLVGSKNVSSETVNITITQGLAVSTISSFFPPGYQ

[3] = target: T3, cynomolgus monkey FcγRIIIaS extracellular domain with C-terminal His-tag (cynomolgus monkey, UniProt Q8SPW2 21-206 at identity 1.00)); experiment: SPR, KD(SG1)/KD(variant)
T3 construct: also called cyno FcgRIIIaS; cynoFcγRIIIaS
T3 chain: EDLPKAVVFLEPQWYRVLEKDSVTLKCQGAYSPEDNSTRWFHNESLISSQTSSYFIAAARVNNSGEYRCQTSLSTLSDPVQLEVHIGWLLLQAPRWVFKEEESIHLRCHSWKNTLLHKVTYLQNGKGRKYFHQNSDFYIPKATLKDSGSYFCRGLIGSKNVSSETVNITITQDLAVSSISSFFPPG
Protocol: as §1

[4] = target: T3, cynomolgus monkey FcγRIIIaS …; experiment: SPR, antibody captured, FcγR analyte
[5] = target: T4, cynomolgus monkey FcγRIIa1 extracellular domain with C-terminal His-tag (cynomolgus monkey); experiment: SPR (Biacore), KD of SG1 / KD of variant
T4 construct: also called cyno FcgRIIa1; cynoFcγRIIa1
T4 chain: T1 chain with T95P, A121T, K127I, S128A, N130K, N135D, Q142R

[6] = target: T5, human FcγRIIaH extracellular domain with C-terminal His-tag (human, UniProt P12318 34-217); experiment: SPR (Biacore), KD of SG1 / KD of variant
T5 construct: also called human FcgRIIaH; FcγRIIa (type H)
T5 sequence: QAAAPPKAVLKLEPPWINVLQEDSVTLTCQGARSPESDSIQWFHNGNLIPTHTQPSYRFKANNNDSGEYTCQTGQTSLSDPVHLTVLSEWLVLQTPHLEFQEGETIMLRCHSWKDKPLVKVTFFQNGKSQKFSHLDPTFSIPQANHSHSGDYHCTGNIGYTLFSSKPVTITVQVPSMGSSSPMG

[7] = target: T6, cynomolgus monkey FcγRIIIaS extracellular domain with C-terminal His-tag (cynomolgus monkey, UniProt Q8SPW2 21-206 at identity 1.00)); experiment: SPR (Biacore), antibody captured, FcgR analyte
T6 construct: also called cyno FcgRIIIaS; cynoFcγRIIIaS
T6 chain: T3 chain

[8] = target: T7, cynomolgus monkey FcγRIIa3 extracellular domain with C-terminal His-tag (cynomolgus monkey); experiment: SPR (Biacore), KD of SG1 divided by KD of variant
T7 construct: also called cyno FcgRIIa3; cynoFcγRIIa3
T7 chain: T1 chain with K127I, N130K, H133P, Q142R
Protocol: as §1

[9] = target: T8, human FcγRIIaR extracellular domain with C-terminal His-tag (human, UniProt P12318 34-217); experiment: SPR (Biacore), KD of SG1 divided by KD of variant
T8 construct: also called human FcgRIIaR; FcγRIIa (type R)
T8 chain: T5 sequence with H134R
Protocol: as §1

[10] = target: T9, cynomolgus monkey FcγRIIb extracellular domain with C-terminal His-tag (cynomolgus monkey); experiment: SPR (Biacore), KD of SG1 divided by KD of variant
T9 construct: also called cyno FcgRIIb; cynoFcγRIIb
T9 chain: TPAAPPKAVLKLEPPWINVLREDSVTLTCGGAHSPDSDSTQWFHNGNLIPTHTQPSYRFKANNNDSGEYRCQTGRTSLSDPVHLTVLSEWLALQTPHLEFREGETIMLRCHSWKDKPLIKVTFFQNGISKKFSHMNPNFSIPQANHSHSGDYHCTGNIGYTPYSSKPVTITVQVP
Protocol: as §1

[11] = target: T10, human FcγRIIb extracellular domain with C-terminal His-tag (human, UniProt P31994 43-217); experiment: SPR (Biacore), KD of SG1 divided by KD of variant
T10 construct: also called human FcgRIIb
T10 sequence: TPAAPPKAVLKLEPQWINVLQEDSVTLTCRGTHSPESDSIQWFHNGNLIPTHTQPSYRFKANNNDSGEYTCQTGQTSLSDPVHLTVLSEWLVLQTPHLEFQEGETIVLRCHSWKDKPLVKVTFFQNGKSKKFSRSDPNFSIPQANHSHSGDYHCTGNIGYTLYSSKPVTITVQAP
Protocol: as §1

[12] = target: T11, cynomolgus monkey FcγRIIa2 extracellular domain with C-terminal His-tag (cynomolgus monkey); experiment: SPR (Biacore), antibody captured, FcgR as analyte
T11 construct: also called cyno FcgRIIa2; cynoFcγRIIa2
T11 chain: T1 chain

[13] = target: T12, human FcγRIIaH extracellular domain with C-terminal His-tag (human, UniProt P12318 34-217); experiment: SPR (Biacore), antibody captured, FcgR as analyte
T12 construct: also called human FcgRIIaH; FcγRIIa (type H)
T12 sequence: T5 sequence

[14] = target: T13, human FcγRIIaR extracellular domain with C-terminal His-tag (human, UniProt P12318 34-217); experiment: SPR (Biacore), KD of SG1 / KD of variant
T13 construct: also called human FcgRIIaR; FcγRIIa (type R)
T13 chain: T5 sequence with H134R

[15] = target: T14, cynomolgus monkey FcγRIIb extracellular domain with C-terminal His-tag (cynomolgus monkey); experiment: SPR (Biacore), KD of SG1 / KD of variant
T14 construct: also called cyno FcgRIIb; cynoFcγRIIb
T14 chain: T9 chain

[16] = target: T15, cynomolgus monkey FcγRIIa2 extracellular domain with C-terminal His-tag (cynomolgus monkey); experiment: SPR (Biacore), KD of SG1 / KD of variant
T15 construct: also called cyno FcgRIIa2; cynoFcγRIIa2
T15 chain: T1 chain

[17] = target: T5, human FcγRIIaH extracellular domain …; experiment: SPR (Biacore), antibody captured, FcgR analyte
[18] = target: T16, cynomolgus monkey FcγRIIa3 extracellular domain with C-terminal His-tag (cynomolgus monkey); experiment: SPR (Biacore), antibody captured, FcgR analyte
T16 construct: also called cyno FcgRIIa3; cynoFcγRIIa3
T16 chain: T1 chain with K127I, N130K, H133P, Q142R

[19] = target: T17, human FcγRIIIaV extracellular domain with C-terminal His-tag (human, UniProt P08637 17-208); experiment: SPR (Biacore), antibody captured, FcgR as analyte
T17 construct: also called human FcgRIIIaV
T17 sequence (P08637 17-208 F176V): as the sequence (P08637 17-208 F176V) above

[20] = target: T9, cynomolgus monkey FcγRIIb extracellular …; experiment: SPR (Biacore), antibody captured, FcgR as analyte
[21] = target: T11, cynomolgus monkey FcγRIIa2 …; experiment: SPR (Biacore), KD of SG1 divided by KD of variant
Protocol: as §1

[22] = target: T18, cynomolgus monkey FcγRIIa1 extracellular domain with C-terminal His-tag (cynomolgus monkey); experiment: SPR (Biacore), antibody captured, FcgR as analyte
T18 construct: also called cyno FcgRIIa1; cynoFcγRIIa1
T18 chain: T1 chain with T95P, A121T, K127I, S128A, N130K, N135D, Q142R

- KD fold (SG1 = 1) [1]: 3.3 fold
- KD fold (SG1 = 1) [2]: 0.04 fold
- KD fold (SG1 = 1) [3]: 0.07 fold
- Kd [4]: 4000 nM
B1: MS1032LO06-MY352 (antibody, human IgG1, kappa)
heavy: QVTLKESGPVLVKPTETLTLTCTVSGIDLSHDDISWVRQAPGKGLEWVGIISYAGSTYYASWAKGRLTISKDTSKNQVVLTMTNMDPVDTATYYCARGVPAYSHGGDLWGQGTLVTVSSASTKGPSVFPLAPSSKSTSGGTAALGCLVKDYFPEPVTVSWNSGALTSGVHTFPAVLQSSGLYSLSSVVTVPSSSLGTQTYICNVNHKPSNTKVDKKVEPKSCDKTHTCPPCPAPELLNGPSVFLFPPKPKDTLMISRTPEVTCVVVDVSDEDPEVKFNWYVDGVEVHNAKTKPREEQYNSTYRVVSVLTVLHRDWLNGKEYKCKVSNKALPKPIEKTISKAKGQPREPQVYTLPPSREEMTKNQVSLTCLVKGFYPSDIAVEWESNGQPENNYKTTPPVLDSDGSFFLYSKLTVRKSRWQQGNVFSCSVMHEALHNHYTQKSLSLSP
light: DIVMTQSPATLSLSPGERATLSCTSSQSVYHANWLSWFQQKPGQPPKLLIYWASTLAYGVPSRFSGSGSGTDFTLTISSLQPEDAATYYCAGGYGGGRYAFGQGTKVEIKRTVAAPSVFIFPPSDEQLKSGTASVVCLLNNFYPREAKVQWKVDNALQSGNSQESVTEQDSKDSTYSLSSTLTLSKADYEKHKVYACEVTHQGLSSPVTKSFNRGEC
notes: MY201 with Q311R/D413R; also called M103205H795-MY352; copies: 2 + 2

- KD fold (SG1 = 1) [5]: 1.3 fold
- KD fold (SG1 = 1) [6]: 2.8 fold
- Kd [7]: 2300 nM
B2: M103205H795-MY472/M103202L889-SK1 (antibody)
chain 1: B1 heavy with A233S, N238T, R313Q, R415D
chain 2: B1 light

- KD fold (SG1 = 1) [8]: 3.9 fold
- KD fold (SG1 = 1) [9]: 3.1 fold
B3: M103205H795-MY283 / M103202L889-SK1 (antibody, human IgG1, kappa, name in EU numbering)
heavy: B1 heavy with N238T, Q297L, R313Q, R415D
light: B1 light

- KD fold (SG1 = 1) [10]: 2.3 fold
- KD fold (SG1 = 1) [11]: 3.1 fold
- KD fold (SG1 = 1) [9]: 3.7 fold
- Kd [12]: 3300 nM
- Kd [13]: 290 nM
B4: M103205H795-MY521 / M103202L889-SK1 (antibody)
heavy: B1 heavy with P234D, N238T, Q297L, R313Q, R415D
light: B1 light
notes: 'Q235L' copied as printed, probably Q295L

- KD fold (SG1 = 1) [14]: 5.2 fold
- KD fold (SG1 = 1) [15]: 6.7 fold
- KD fold (SG1 = 1) [16]: 5.1 fold
- Kd [17]: 900 nM
- Kd [18]: 2500 nM
B5: M103205H795-MY475/M103202L889-SK1 (antibody)
heavy: B1 heavy with A233W, N238T, R313Q, R415D
light: B1 light
notes: Substitutions in EU numbering on SG1

- Kd [19]: 2.4 nM
- Kd [20]: 1600 nM
B6: M103205H795-MY388 (first row so labelled: G236L/H268D/Q295L/K326T/A330K) / M103202L889-SK1 (antibody, human IgG1, kappa, name in EU numbering)
heavy: B1 heavy with N238L, Q297L, R313Q, K328T, R415D
light: B1 light
notes: The label MY388 is printed for two different variants; also called MY388 (first of two rows with this label)

- KD fold (SG1 = 1) [21]: 5.5 fold
B7: M103205H795-MY531 / M103202L889-SK1 (antibody, human IgG1, kappa, name in EU numbering)
heavy: B1 heavy with L236W, N238T, R313Q, K328T, R415D
light: B1 light

- KD fold (SG1 = 1) [10]: 5 fold
- Kd [20]: 300 nM
B8: M103205H795-MY529 / M103202L889-SK1 (antibody, human IgG1, kappa, name in EU numbering)
heavy: B1 heavy with L236W, N238T, Q297L, R313Q, R415D
light: B1 light

- KD fold (SG1 = 1) [21]: 3.9 fold
- KD fold (SG1 = 1) [10]: 5.3 fold
- KD fold (SG1 = 1) [11]: 3.3 fold
B9: M103205H795-MY527 / M103202L889-SK1 (antibody, human IgG1, kappa, name in EU numbering)
heavy: B1 heavy with A233T, N238T, Q297L, R313Q, R415D
light: B1 light

- KD fold (SG1 = 1) [9]: 5.2 fold
- Kd [20]: 480 nM
B10: M103205H795-MY523 / M103202L889-SK1 (antibody, human IgG1, kappa, name in EU numbering)
heavy: B1 heavy with A233G, N238T, S241V, Q297L, R313Q, R415D
light: B1 light

- KD fold (SG1 = 1) [8]: 5.2 fold
- Kd [22]: 930 nM
B11: M103205H795-MY380 / M103202L889-SK1 (antibody, human IgG1, kappa, name in EU numbering)
heavy: B1 heavy with D270E, R313Q, P398K, R415D
light: B1 light

- KD fold (SG1 = 1) [5]: 1.5 fold
B12: M103205H795-MY446/M103202L889-SK1 (antibody, human IgG1, kappa)
heavy: B1 heavy with P234H, N238T, R313Q, R415D
light: B1 light
notes: as for B5

- KD fold (SG1 = 1) [5]: 2.5 fold
- Kd [7]: 1300 nM
B13: M103205H795-MY450/M103202L889-SK1 (antibody, human IgG1, kappa)
heavy: B1 heavy with P234M, N238T, R313Q, R415D
light: B1 light
notes: as for B5
